Laboratory results from patent publication US20200270588A1, “GLUCOSYL TRANSFERASE POLYPEPTIDES AND METHODS OF USE” (Syngenta Participations AG, priority 2017, published 2020).

What was measured:
[1] = UDP luminescence plate assay of E. coli extracts, mutants within SEQ ID No: 17, 2 mM metribuzin; assay type: biochemical, Zea mays; details: for RATIO of the metribuzin signal to the DMSO signal: 2 mM metribuzin vs DMSO control, same mutant; for SIGNAL: metribuzin signal of mutant divided by the signal of the SEQ ID No. 17 control / luminescence signal observed with 2 mM metribuzin / metribuzin signal relative to the SEQ ID No:17 control (first parentheses) / ratio of metribuzin to DMSO signal (second parentheses): 2 mM metribuzin; for SIGNAL: metribuzin signal of mutant divided by the signal of the SEQ ID No. 17 control: relative to SEQ ID No: 17 control; for luminescence signal in the DMSO control / luminescence signal observed with 2 mM metribuzin: additional mutations within SEQ ID No: 17; for luminescence signal in the DMSO control: DMSO in place of metribuzin; for luminescence signal observed with 2 mM metribuzin: control = SEQ ID No: 17; for metribuzin signal relative to the SEQ ID No:17 control (first parentheses) / ratio of metribuzin to DMSO signal (second parentheses): additional mutation in SEQ ID No: 17
[2] = UDP luminescence plate assay of E. coli extracts, mutants of SEQ ID No: 1, 2 mM metribuzin; assay type: biochemical, Zea mays; details: 2 mM metribuzin
Outline: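 Extracts of E. coli BL21 DE3 expressing C-terminally His-tagged SEQ ID NO:1 variants incubated with 2 mM metribuzin; UDP formed read by UDP-Glo luminescence against a UDP standard curve, with optional 95 C stop. Mutants ranked by metribuzin/DMSO signal ratio and signal increase over wild-type bx9.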

B1: A432Q: bx9 SEQ ID NO:1 mutant (protein)
chain: MASSRTGAGAGGRVVVFPFPFQGHFNPVMRLARALHARGLAITVFHSGALDPADYPADYRFVPVTVEADPKLLASEDIAAIVTTLNASCDAPFRARLSALLAAEGRDSVRCVFTDVSWNAVLTASSDLGVPALGMMTASAASLRDYMAYRTLIDKGYLPVKEERKEDPVPELPPYLVKDLLRVDTSDLEEFAELLARTVTAARRASGLIFNTFPLIETDTLAEIHKALSVPVFAVAPLNKLVPTATASLHGVVQADRGCLQWLDTQQPGSVLYVSFGSMAAMDPHEFVELAWGLADSKRPFVWVVRPNLIRGFESGALPDGVEDEVRGRGIVVAWAPQEEVLAHPAVGGFLTHNGWNSTVEAISEGVPMVCCPRHGDQFGNMRYVCDVWKVGTELVGEQLERGQVKAAIDRLFGTKEGEEIKERMKEFKIAQAKGIGIGVDVDETASPRTDLTDLVDLIKSF
modifications: Zea mays
- RATIO of the metribuzin signal to the DMSO signal [1]: 1.20
- SIGNAL: metribuzin signal of mutant divided by the signal of the SEQ ID No. 17 control [1]: 4.09
- luminescence signal in the DMSO control [1]: 6.22E+06
- luminescence signal observed with 2 mM metribuzin [1]: 7.46E+06
- factor of increased signal relative to the bx9 w/t control signal (first parentheses) [2]: 6
- ratio of activity with metribuzin relative to activity with DMSO (second parentheses) [2]: 1.35

B2: A432T: bx9 SEQ ID NO:1 mutant (protein)
chain: MASSRTGAGAGGRVVVFPFPFQGHFNPVMRLARALHARGLAITVFHSGALDPADYPADYRFVPVTVEADPKLLASEDIAAIVTTLNASCDAPFRARLSALLAAEGRDSVRCVFTDVSWNAVLTASSDLGVPALGMMTASAASLRDYMAYRTLIDKGYLPVKEERKEDPVPELPPYLVKDLLRVDTSDLEEFAELLARTVTAARRASGLIFNTFPLIETDTLAEIHKALSVPVFAVAPLNKLVPTATASLHGVVQADRGCLQWLDTQQPGSVLYVSFGSMAAMDPHEFVELAWGLADSKRPFVWVVRPNLIRGFESGALPDGVEDEVRGRGIVVAWAPQEEVLAHPAVGGFLTHNGWNSTVEAISEGVPMVCCPRHGDQFGNMRYVCDVWKVGTELVGEQLERGQVKAAIDRLFGTKEGEEIKERMKEFKIATAKGIGIGVDVDETASPRTDLTDLVDLIKSF
modifications: Zea mays
- RATIO of the metribuzin signal to the DMSO signal [1]: 1.17
- SIGNAL: metribuzin signal of mutant divided by the signal of the SEQ ID No. 17 control [1]: 3.57
- luminescence signal in the DMSO control [1]: 5.56E+06
- luminescence signal observed with 2 mM metribuzin [1]: 6.51E+06
- factor of increased signal relative to the bx9 w/t control signal (first parentheses) [2]: 3.5
- ratio of activity with metribuzin relative to activity with DMSO (second parentheses) [2]: 1.35

B3: A432N: bx9 SEQ ID NO:1 mutant (protein)
chain: MASSRTGAGAGGRVVVFPFPFQGHFNPVMRLARALHARGLAITVFHSGALDPADYPADYRFVPVTVEADPKLLASEDIAAIVTTLNASCDAPFRARLSALLAAEGRDSVRCVFTDVSWNAVLTASSDLGVPALGMMTASAASLRDYMAYRTLIDKGYLPVKEERKEDPVPELPPYLVKDLLRVDTSDLEEFAELLARTVTAARRASGLIFNTFPLIETDTLAEIHKALSVPVFAVAPLNKLVPTATASLHGVVQADRGCLQWLDTQQPGSVLYVSFGSMAAMDPHEFVELAWGLADSKRPFVWVVRPNLIRGFESGALPDGVEDEVRGRGIVVAWAPQEEVLAHPAVGGFLTHNGWNSTVEAISEGVPMVCCPRHGDQFGNMRYVCDVWKVGTELVGEQLERGQVKAAIDRLFGTKEGEEIKERMKEFKIANAKGIGIGVDVDETASPRTDLTDLVDLIKSF
modifications: Zea mays
- SIGNAL: metribuzin signal of mutant divided by the signal of the SEQ ID No. 17 control [1]: 4.21
- luminescence signal in the DMSO control [1]: 6.13E+06
- luminescence signal observed with 2 mM metribuzin [1]: 7.67E+06

B4: A432H: bx9 SEQ ID NO:1 mutant (protein)
chain: MASSRTGAGAGGRVVVFPFPFQGHFNPVMRLARALHARGLAITVFHSGALDPADYPADYRFVPVTVEADPKLLASEDIAAIVTTLNASCDAPFRARLSALLAAEGRDSVRCVFTDVSWNAVLTASSDLGVPALGMMTASAASLRDYMAYRTLIDKGYLPVKEERKEDPVPELPPYLVKDLLRVDTSDLEEFAELLARTVTAARRASGLIFNTFPLIETDTLAEIHKALSVPVFAVAPLNKLVPTATASLHGVVQADRGCLQWLDTQQPGSVLYVSFGSMAAMDPHEFVELAWGLADSKRPFVWVVRPNLIRGFESGALPDGVEDEVRGRGIVVAWAPQEEVLAHPAVGGFLTHNGWNSTVEAISEGVPMVCCPRHGDQFGNMRYVCDVWKVGTELVGEQLERGQVKAAIDRLFGTKEGEEIKERMKEFKIAHAKGIGIGVDVDETASPRTDLTDLVDLIKSF
modifications: Zea mays
- SIGNAL: metribuzin signal of mutant divided by the signal of the SEQ ID No. 17 control [1]: 3.44
- luminescence signal in the DMSO control [1]: 6.08E+06
- luminescence signal observed with 2 mM metribuzin [1]: 6.28E+06

B5: F313M: additional mutation in SEQ ID No: 17 (protein)
chain: MASSRTGAGAGGRVVVFPFPFQGHFNPVMRLARALHARGLAITVFHSGALDPADYPADYRFVPVTVEADPKLLASEDIAAIVTTLNASCDAPFRARLSALLAAEGRDSVRCVFTDVVWNAVLTASSDLGVPALGMMTASAASLRDYMAYRTLIDKGYLPVKEERKEDPVPELPPYLVKDLLRVDTSDLEEFAELLARTVTAARRASGLIFNTFPLIETDTLAEIHKALSVPVFAVAPLNKLVPTATASLHGVVQADRGCLQWLDTQQPGSVLYVSFGSFAAMDPHEFVELAWGLADSKRPFVWVVRPNLIRGMESGALPDGVEDEVRGRGIVVKWAPQEEVLAHPAVGGFLTHNGWNSTVEAISEGVPMVCCPRHGDQFGNMRYVCDVWKVGTELVGEQLERGQVKAAIDRLFGTKEGEEIKERMKEFKIAAAKGIGIGVDVDETASPRTDLTDLVDLIKSF
modifications: Mutated Zea mays Bx9 protein sequence
- RATIO of the metribuzin signal to the DMSO signal [1]: 1.29
- metribuzin signal relative to the SEQ ID No:17 control (first parentheses) [1]: 1.9
- ratio of metribuzin to DMSO signal (second parentheses) [1]: 1.30
- SIGNAL: metribuzin signal of mutant divided by the signal of the SEQ ID No. 17 control [1]: 1.91
- luminescence signal in the DMSO control [1]: 2.69E+06
- luminescence signal observed with 2 mM metribuzin [1]: 3.48E+06

B6: E339V: additional mutation in SEQ ID No: 17 (protein)
chain: MASSRTGAGAGGRVVVFPFPFQGHFNPVMRLARALHARGLAITVFHSGALDPADYPADYRFVPVTVEADPKLLASEDIAAIVTTLNASCDAPFRARLSALLAAEGRDSVRCVFTDVVWNAVLTASSDLGVPALGMMTASAASLRDYMAYRTLIDKGYLPVKEERKEDPVPELPPYLVKDLLRVDTSDLEEFAELLARTVTAARRASGLIFNTFPLIETDTLAEIHKALSVPVFAVAPLNKLVPTATASLHGVVQADRGCLQWLDTQQPGSVLYVSFGSFAAMDPHEFVELAWGLADSKRPFVWVVRPNLIRGFESGALPDGVEDEVRGRGIVVKWAPQVEVLAHPAVGGFLTHNGWNSTVEAISEGVPMVCCPRHGDQFGNMRYVCDVWKVGTELVGEQLERGQVKAAIDRLFGTKEGEEIKERMKEFKIAAAKGIGIGVDVDETASPRTDLTDLVDLIKSF
modifications: Mutated Zea mays Bx9 protein sequence
- metribuzin signal relative to the SEQ ID No:17 control (first parentheses) [1]: 2.6
- ratio of metribuzin to DMSO signal (second parentheses) [1]: 1.51
- SIGNAL: metribuzin signal of mutant divided by the signal of the SEQ ID No. 17 control [1]: 2.64
- luminescence signal in the DMSO control [1]: 3.18E+06
- luminescence signal observed with 2 mM metribuzin [1]: 4.81E+06

B7: A432V: bx9 SEQ ID NO:1 mutant (protein)
chain: MASSRTGAGAGGRVVVFPFPFQGHFNPVMRLARALHARGLAITVFHSGALDPADYPADYRFVPVTVEADPKLLASEDIAAIVTTLNASCDAPFRARLSALLAAEGRDSVRCVFTDVSWNAVLTASSDLGVPALGMMTASAASLRDYMAYRTLIDKGYLPVKEERKEDPVPELPPYLVKDLLRVDTSDLEEFAELLARTVTAARRASGLIFNTFPLIETDTLAEIHKALSVPVFAVAPLNKLVPTATASLHGVVQADRGCLQWLDTQQPGSVLYVSFGSMAAMDPHEFVELAWGLADSKRPFVWVVRPNLIRGFESGALPDGVEDEVRGRGIVVAWAPQEEVLAHPAVGGFLTHNGWNSTVEAISEGVPMVCCPRHGDQFGNMRYVCDVWKVGTELVGEQLERGQVKAAIDRLFGTKEGEEIKERMKEFKIAVAKGIGIGVDVDETASPRTDLTDLVDLIKSF
modifications: Zea mays
- SIGNAL: metribuzin signal of mutant divided by the signal of the SEQ ID No. 17 control [1]: 3.88
- luminescence signal in the DMSO control [1]: 5.69E+06
- luminescence signal observed with 2 mM metribuzin [1]: 7.07E+06

B8: E339A (protein)
chain: MASSRTGAGAGGRVVVFPFPFQGHFNPVMRLARALHARGLAITVFHSGALDPADYPADYRFVPVTVEADPKLLASEDIAAIVTTLNASCDAPFRARLSALLAAEGRDSVRCVFTDVSWNAVLTASSDLGVPALGMMTASAASLRDYMAYRTLIDKGYLPVKEERKEDPVPELPPYLVKDLLRVDTSDLEEFAELLARTVTAARRASGLIFNTFPLIETDTLAEIHKALSVPVFAVAPLNKLVPTATASLHGVVQADRGCLQWLDTQQPGSVLYVSFGSFAAMDPHEFVELAWGLADSKRPFVWVVRPNLIRGFESGALPDGVEDEVRGRGIVVAWAPQAEVLAHPAVGGFLTHNGWNSTVEAISEGVPMVCCPRYGDQFGNMRYVCDVWKVGTELVGEQLERGQVKAAIDRLFGTKEGEEIKERMKEFKIAAAKGIGIGVDVDETASPRTDLTDLVDLIKSF
modifications: C-terminal His tag; Zea mays
- RATIO of the metribuzin signal to the DMSO signal [1]: 1.53
- SIGNAL: metribuzin signal of mutant divided by the signal of the SEQ ID No. 17 control [1]: 2.01
- luminescence signal in the DMSO control [1]: 2.39E+06
- luminescence signal observed with 2 mM metribuzin [1]: 3.66E+06
